This is an account of results in paper PMC9643514, “Regulation of BRCA1 stability through the tandem UBX domains of isoleucyl-tRNA synthetase 1” (Nature Communications, 2022).

Test [1] deals with T1, His-IARS1, full-length human IARS1 (residues 1−1262) (human, UniProt P41252 1-1262).
T1 construct: pFASTbacHTb vector; also called purified IARS1; full-length IARS1; source: Sf9, purified (Ni2+ column, IEX, SEC); not shown: His6, N-terminal, kept
T1 sequence (looked up): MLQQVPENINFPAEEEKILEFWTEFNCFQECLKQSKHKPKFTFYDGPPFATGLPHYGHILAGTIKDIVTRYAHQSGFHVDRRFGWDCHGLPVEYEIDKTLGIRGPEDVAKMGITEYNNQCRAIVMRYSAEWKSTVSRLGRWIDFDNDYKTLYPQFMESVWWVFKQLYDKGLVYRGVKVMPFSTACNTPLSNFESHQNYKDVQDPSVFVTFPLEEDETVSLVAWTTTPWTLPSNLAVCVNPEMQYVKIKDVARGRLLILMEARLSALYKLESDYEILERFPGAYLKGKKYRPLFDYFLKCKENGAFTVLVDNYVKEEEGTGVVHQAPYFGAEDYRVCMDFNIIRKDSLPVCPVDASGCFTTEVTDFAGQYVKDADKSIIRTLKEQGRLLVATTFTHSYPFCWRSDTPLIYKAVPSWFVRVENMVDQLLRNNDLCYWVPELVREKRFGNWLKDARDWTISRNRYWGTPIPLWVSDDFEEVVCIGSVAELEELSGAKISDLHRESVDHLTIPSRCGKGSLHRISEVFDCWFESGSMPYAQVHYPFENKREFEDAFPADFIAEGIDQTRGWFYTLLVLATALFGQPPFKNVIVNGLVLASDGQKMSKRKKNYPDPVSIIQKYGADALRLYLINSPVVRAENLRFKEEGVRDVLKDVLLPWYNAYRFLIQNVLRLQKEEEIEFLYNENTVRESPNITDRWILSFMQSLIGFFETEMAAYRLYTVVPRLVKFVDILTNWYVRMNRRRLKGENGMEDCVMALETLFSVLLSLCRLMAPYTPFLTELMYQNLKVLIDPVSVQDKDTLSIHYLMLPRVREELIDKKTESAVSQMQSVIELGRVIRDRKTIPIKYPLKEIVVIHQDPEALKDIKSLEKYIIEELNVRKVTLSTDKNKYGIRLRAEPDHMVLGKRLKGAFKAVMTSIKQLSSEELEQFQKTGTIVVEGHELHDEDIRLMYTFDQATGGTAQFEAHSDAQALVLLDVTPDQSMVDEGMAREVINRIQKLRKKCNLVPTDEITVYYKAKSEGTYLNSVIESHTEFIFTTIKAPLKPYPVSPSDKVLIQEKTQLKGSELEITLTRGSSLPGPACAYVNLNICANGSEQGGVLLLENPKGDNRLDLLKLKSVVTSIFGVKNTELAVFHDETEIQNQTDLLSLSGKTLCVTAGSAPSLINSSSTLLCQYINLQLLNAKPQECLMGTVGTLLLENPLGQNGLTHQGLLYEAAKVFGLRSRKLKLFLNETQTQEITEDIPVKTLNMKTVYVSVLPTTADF
The experiment in a line: pull-down; human His-IARS1 or IARS1ΔUBX2 mixed with human GST-EARS1 at 1:1.5, 30 min at 4 °C, Ni-sepharose beads 2 hr at 4 °C, eluted with 250 mM imidazole in His A buffer (20 mM Tris-HCl pH 7.4, 300 mM NaCl, 7 mM 2-mercaptoethanol, 5% glycerol), SDS-PAGE and Coomassie. The following applies: both partners purified.

The target of test [2] is T1, His-IARS1, full-length human IARS1 …. The experiment in a line: pull-down; in vitro pull-down of IARS1 with fragments of the BRCA1-BARD1 complex. The following applies: both partners purified.

B1: GST-EARS1 with three WHEP motifs (human EPRS1 residues 1–1015) (domain or fragment, UniProt P07814 1-1015, looked up)
chain: MATLSLTVNSGDPPLGALLAVEHVKDDVSISVEEGKENILHVSENVIFTDVNSILRYLARVATTAGLYGSNLMEHTEIDHWLEFSATKLSSCDSFTSTINELNHCLSLRTYLVGNSLSLADLCVWATLKGNAAWQEQLKQKKAPVHVKRWFGFLEAQQAFQSVGTKWDVSTTKARVAPEKKQDVGKFVELPGAEMGKVTVRFPPEASGYLHIGHAKAALLNQHYQVNFKGKLIMRFDDTNPEKEKEDFEKVILEDVAMLHIKPDQFTYTSDHFETIMKYAEKLIQEGKAYVDDTPAEQMKAEREQRIDSKHRKNPIEKNLQMWEEMKKGSQFGQSCCLRAKIDMSSNNGCMRDPTLYRCKIQPHPRTGNKYNVYPTYDFACPIVDSIEGVTHALRTTEYHDRDEQFYWIIEALGIRKPYIWEYSRLNLNNTVLSKRKLTWFVNEGLVDGWDDPRFPTVRGVLRRGMTVEGLKQFIAAQGSSRSVVNMEWDKIWAFNKKVIDPVAPRYVALLKKEVIPVNVPEAQEEMKEVAKHPKNPEVGLKPVWYSPKVFIEGADAETFSEGEMVTFINWGNLNITKIHKNADGKIISLDAKLNLENKDYKKTTKVTWLAETTHALPIPVICVTYEHLITKPVLGKDEDFKQYVNKNSKHEELMLGDPCLKDLKKGDIIQLQRRGFFICDQPYEPVSPYSCKEAPCVLIYIPDGHTKEMPTSGSKEKTKVEATKNETSAPFKERPTPSLNNNCTTSEDSLVLYNRVAVQGDVVRELKAKKAPKEDVDAAVKQLLSLKAEYKEKTGQEYKPGNPPAEIGQNISSNSSASILESKSLYDEVAAQGEVVRKLKAEKSPKAKINEAVECLLSLKAQYKEKTGKEYIPGQPPLSQSSDSSPTRNSEPAGLETPEAKVLFDKVASQGEVVRKLKTEKAPKDQVDIAVQELLQLKAQYKSLIGVEYKPVSATGAEDKDKKKKEKENKSEKQNKPQKQNDGQRKDPSKNQGGGLSSSGAGEGQGPKKQTRLG
notes: pGEX4T3 vector; source: E. coli Rosetta (DE3), purified (GST column, gel filtration)
Regarding B1, the binding result in test [1] is “binds”.

B2: BRCT domain (residues 1645–1863) of BRCA1 (domain or fragment, UniProt P38398 1645-1863, looked up)
chain: RVNKRMSMVVSGLTPEEFMLVYKFARKHHITLTNLITEETTHVVMKTDAEFVCERTLKYFLGIAGGKWVVSYFWVTQSIKERKMLNEHDFEVRGDVVNGRNHQGPKRARESQDRKIFRGLEICCYGPFTNMPTDQLEWMVQLCGASVVKELSSFTLGTGVHPIVVVQPDAWTEDNGFHAIGQMCEAPVVTREWVLDSVALYQCQELDTYLIPQIPHSHY
notes: BRCA1 BRCT domain, residues 1645-1863; also called BRCA1 BRCT
Turning to B2, the binding result in test [2] is on record as “binds”.

B3: GST-EARS1 without the WHEP motifs (human EPRS1 residues 1−706) (domain or fragment, UniProt P07814 1-706, looked up)
chain: MATLSLTVNSGDPPLGALLAVEHVKDDVSISVEEGKENILHVSENVIFTDVNSILRYLARVATTAGLYGSNLMEHTEIDHWLEFSATKLSSCDSFTSTINELNHCLSLRTYLVGNSLSLADLCVWATLKGNAAWQEQLKQKKAPVHVKRWFGFLEAQQAFQSVGTKWDVSTTKARVAPEKKQDVGKFVELPGAEMGKVTVRFPPEASGYLHIGHAKAALLNQHYQVNFKGKLIMRFDDTNPEKEKEDFEKVILEDVAMLHIKPDQFTYTSDHFETIMKYAEKLIQEGKAYVDDTPAEQMKAEREQRIDSKHRKNPIEKNLQMWEEMKKGSQFGQSCCLRAKIDMSSNNGCMRDPTLYRCKIQPHPRTGNKYNVYPTYDFACPIVDSIEGVTHALRTTEYHDRDEQFYWIIEALGIRKPYIWEYSRLNLNNTVLSKRKLTWFVNEGLVDGWDDPRFPTVRGVLRRGMTVEGLKQFIAAQGSSRSVVNMEWDKIWAFNKKVIDPVAPRYVALLKKEVIPVNVPEAQEEMKEVAKHPKNPEVGLKPVWYSPKVFIEGADAETFSEGEMVTFINWGNLNITKIHKNADGKIISLDAKLNLENKDYKKTTKVTWLAETTHALPIPVICVTYEHLITKPVLGKDEDFKQYVNKNSKHEELMLGDPCLKDLKKGDIIQLQRRGFFICDQPYEPVSPYSCKEAPCVLIYIPDGH
notes: human EPRS1, EARS1 part without the three WHEP motifs, residues 1-706; pGEX4T3 vector; source: E. coli Rosetta (DE3), purified (GST column, gel filtration)
With B3, in test [1], the binding result is “binds”.

B4: heterodimeric RING (BRCA1 residues 1–304)-RING (BARD1 residues 26–142) domains of the BRCA1-BARD1 complex (complex)
chain 1: MDLSALRVEEVQNVINAMQKILECPICLELIKEPVSTKCDHIFCKFCMLKLLNQKKGPSQCPLCKNDITKRSLQESTRFSQLVEELLKIICAFQLDTGLEYANSYNFAKKENNSPEHLKDEVSIIQSMGYRNRAKRLLQSEPENPSLQETSLSVQLSNLGTVRTLRTKQRIQPQKTSVYIELGSDSSEDTVNKATYCSVGDQELLQITPQGTRDEISLDSAKKAACEFSETDVTNTEHHQPSNNDLNTTEKRAAERHPEKYQGSSVSNLHVEPCGTNTHASSLQHENSSLLLTKDRMNVEKAEF
chain 2: MEPDGRGAWAHSRAALDRLEKLLRCSRCTNILREPVCLGGCEHIFCSNCVSDCIGTGCPVCYTPAWIQDLKINRQLDSMIQLCSKLRNLLHDNELSDLKEDKPRKSLFNDAGNKKNS
notes: also called RING-RING domains; source: expressed and purified as the BRCA1-BARD1 complex
In the case of B4, the binding result in test [2] is “binds”.
